# Data as given in PMC5673899, “Structural basis for receptor recognition of pollen tube attraction peptides” (Nature Communications, 2017).
# “Also recorded” adds a separate entry of the source.
# Tests used:
# [1] = system: semi-in-vivo pollen tubes; assay: Gelatin-beads assay, wild-type semi-in-vivo pollen tubes; type: cell-based, Arabidopsis; settings: gelatin beads containing 250 nM peptide
# Experimental: (§1) Attraction activities of mutant AtLURE1.2 peptides were examined for semi-in-vivo pollen tubes growing through cut, pollinated pistils by gelatin-beads assay and wavy assay, [20]. For the gelatin-beads assay, pollen tubes were grown on solid pollen germination medium poured into a mold made with 1-mm thick silicone rubber and cover glasses. After hand-pollination, the topside cover glass was removed and the medium was covered with hydrated silicone oil (KF-96–100CS; Shin-Etsu). Attraction of pollen tubes toward the peptide was evaluated using AtLURE1 peptide containing gelatine beads under an inverted microscope (IX71, Olympus) equipped with a micro-manipulator (Narishige). For the AtLURE1-responsive wavy assay, the purified AtLURE1.2 peptide was added to solid pollen germination medium, which was melted at 70 °C and then cooled to a certain degree. The mixture was mixed by vortexing and poured into the mold. Pollen tubes of each genotype were grown through cut styles, as mentioned above. Each peptide (25 μM in 10 mM Bis-Tris (pH 6.0) and 100 mM NaCl) was diluted to 250 nM by cultivation medium in both assays. To examine reactivity of PRK6 mutants to AtLURE1.2, constructs for PRK6 mutants, D234A, N239A, and ΔN239I240, were generated by site-directed mutagenesis from a wild-type PRK6 vector, pPZP221-pPRK6::PRK6-mRuby2 (ref. [20]). Wild-type and mutant PRK6 constructs were introduced into prk6–1 plant. After transformants were selected by the same criteria as previously, beads assay and wavy assay were performed in several T1 lines and single T2 line, respectively, for each genotype using 250 nM wild-type AtLURE1.2 peptide.
# AtPRK6^LRR = assay: In vitro pull-down with AtPRK6^LRR; type: binding, Arabidopsis thaliana; settings: Ni-NTA, excess AtLURE1.2, on ice 30 min, washed five times, 25 mM Tris pH 8.0, 150 mM NaCl; SDS-PAGE, Coomassie blue; repeated at least three times
# Excerpt: (§2) The genes of AtPRK3 ^LRR (residues 1–241), AtPRK4 ^LRR (residues 1–277), AtPRK5 ^LRR (residues 1–279), AtPRK6 ^LRR (residues 1–262), MIK1 ^LRR (residues 1–633), MIK2 ^LRR (residues 1–707) were amplified from Arabidopsis cDNA library by PCR and cloned into pFastBac-1 vector with a C-terminal 6 × His-tag. Their identities were confirmed by sequencing. The mature form of AtLURE1.1 (residues 20–94), AtLURE1.2 (residues 20–90), AtLURE1.3 (residues 21–91), and AtLURE1.4 (residues 20–90) were cloned into pFastBac-1 vector, with a modified N-terminal hemolin signal peptide and 6 × His-SUMO tag. Point mutation constructs were generated by QuickChange Site-Directed Mutagenesis Kit (Strategene). All the proteins were expressed using the Bac-to-Bac baculovirus expression system (Invitrogen) in High Five cells at 22 °C. One liter of High Five cells (2.0 × 10^6 cells mL^−1) cultured in the medium from Expression Systems was infected with 25 ml recombinant baculovirus and the media was collected after 72 h of infection. Secreted LRR proteins were purified using Ni-NTA (Novagen) and size-exclusion chromatography (Hiload 200, GE Healthcare) in buffer containing 10 mM Bis-Tris pH 6.0 and 100 mM NaCl. The His-SUMO tag of the AtLURE proteins was removed by Prescission Protease at 4 °C overnight in buffer containing 25 mM Tris pH 8.0 and 150 mM NaCl. All AtLURE proteins were further cleaned by size-exclusion chromatography (Hiload 200, GE Healthcare). For co-expression of AtPRK6^LRR and AtLURE1, one liter of High Five cells were co-infected with 20 and 30 ml recombinant baculovirus of AtPRK6^LRR and AtLURE1, respectively. Secreted AtPRK6^LRR-AtLURE1 complexes were processed with Prescission Protease digestion and then purified as described above. Expression and purification procedures of all the mutants were essentially the same as those of AtPRK6^LRR and AtLURE1.2.
# (§3) The purified His-tagged ectodomains of AtPRK proteins and MIK1, 2 were used to pull-down the AtLURE1.2 peptide. […] All the eluted samples were analyzed by SDS-PAGE and visualized by Coomassie blue staining. […]
# MIK2^LRR = assay: In vitro pull-down with MIK2^LRR; type: binding, Arabidopsis; settings: Ni-NTA, excess AtLURE1.2, on ice 30 min, washed five times; SDS-PAGE, Coomassie blue
# Excerpt: as §2, with “The His-SUMO tag of the AtLURE proteins was removed by Prescission Protease at 4 °C overnight in buffer containing 25 mM Tris pH 8.0 and 150 mM NaCl. All AtLURE proteins were further cleaned by size-exclusion chromatography (Hiload 200, GE Healthcare). For co-expression of AtPRK6^LRR and AtLURE1, one liter of High Five cells were co-infected with 20 and 30 ml recombinant baculovirus of AtPRK6^LRR and AtLURE1, respectively. Secreted AtPRK6^LRR-AtLURE1 complexes were processed with Prescission Protease digestion and then purified as described above. Expression and purification procedures of all the mutants were essentially the same as those of AtPRK6^LRR and AtLURE1.2.” left out
# as §3
# [2] = system: prk6 pollen tubes transformed with PRK6 D234A; assay: Wavy assay, prk6 pollen tubes transformed with D234A PRK6; type: cell-based, Arabidopsis; settings: 250 nM wild-type AtLURE1.2 in medium
# Experimental: as §1, with “To examine reactivity of PRK6 mutants to AtLURE1.2, constructs for PRK6 mutants, D234A, N239A, and ΔN239I240, were generated by site-directed mutagenesis from a wild-type PRK6 vector, pPZP221-pPRK6::PRK6-mRuby2 (ref. [20]). Wild-type and mutant PRK6 constructs were introduced into prk6–1 plant. After transformants were selected by the same criteria as previously, beads assay and wavy assay were performed in several T1 lines and single T2 line, respectively, for each genotype using 250 nM wild-type AtLURE1.2 peptide.” left out
# pollen tubes. Fluorescence is from mRuby2 fused to the C-terminal of PRK6 receptors, showing that all of mutant PRK6 receptors localize normally to the plasma membrane of the pollen tube tip. […]
molecule,measurement,setting,value
"AtLURE1.2: mature form of AtLURE1.2 (residues 20–90), defensin-like cysteine-rich peptide expressed in insect cells (protein, left off: His6, N-terminal, cleaved | SUMO, N-terminal, cleaved, mature form of AtLURE1.2 (residues 20–90), defensin-like cysteine-rich peptide expressed in insect cells) TLINGSSDEERTYSFSPTTSPFDPRSLNQELKIGRIGYCFDCARACMRRGKYIRTCSFERKLCRCSISDIK",pollen tube attraction activity (in words),"[1]; Tukey−Kramer test, P < 0.05",efficiently attracted pollen tubes
same,attraction frequency of pollen tubes,"[1]; mean ± SD, 9–16 pollen tubes per assay, 3−5 assays",94 ± 7%
same,interaction in pull-down assay,AtPRK6^LRR,strongly interacted
same,interaction in pull-down assay,MIK2^LRR,none of the other LRR proteins was found to interact
same,wavy and branched pollen tube behavior,[2],branched behavior is not observed; also recorded: greatly compromised
